Article PMC11653685, “Crystal structure of Alzheimer's disease phospholipase D3 provides a molecular basis for understanding its normal and pathological functions” (The Febs Journal, 2024)

Molecular target: the molecule itself
Experiment: crystal structure; hPLD3 luminal domain with the hexa-His tag left on; crystals grown at 20 °C in 0.17 M ammonium sulfate, 15% glycerol, 25% PEG 4000; 2.3 Å; two molecules in the asymmetric unit

B1: human phospholipase D3 (hPLD3) luminal domain, residues N71-L490 (domain or fragment, UniProt Q8IV08 71-490, looked up)
chain: NQRPAPCYDPCEAVLVESIPEGLDFPNASTGNPSTSQAWLGLLAGAHSSLDIASFYWTLTNNDTHTQEPSAQQGEEVLRQLQTLAPKGVNVRIAVSKPSGPQPQADLQALLQSGAQVRMVDMQKLTHGVLHTKFWVVDQTHFYLGSANMDWRSLTQVKELGVVMYNCSCLARDLTKIFEAYWFLGQAGSSIPSTWPRFYDTRYNQETPMEICLNGTPALAYLASAPPPLCPSGRTPDLKALLNVVDNARSFIYVAVMNYLPTLEFSHPHRFWPAIDDGLRRATYERGVKVRLLISCWGHSEPSMRAFLLSLAALRDNHTHSDIQVKLFVVPADEAQARIPYARVNHNKYMVTERATYIGTSNWSGNYFTETAGTSLLVTQNGRGGLRSQLEAIFLRDWDSPYSHDLDTSADSVGNACRLL
modifications: N-linked GlcNAc at N236 and N284 (seen in the electron density)
notes: also called soluble form of the enzyme; source: Expi293 GnTI- cells, transfected, secreted; purified from culture supernatant (HisTrap excel, Superdex 200 SEC); not shown: His6, N-terminal, kept
B1 was tested, and the “stoichiometry N” value was 2.
